# Literature values as cited in patent US6444791B1, “Methods and compositions for the treatment of keratoconus using protease inhibitors” (K-Quay Enterprises, LLC, priority 1999, dated 2002).
# Where two headings read alike, the source gives them in different places. Non-standard residues stand in square brackets, D forms with d. Residues, ends and D or L forms follow the SMILES beside them. No end group written: not given here. *: point of attachment. Sta = CC(C)C[C@H](N)[C@@H](O)CC(=O)O; Isovaleryl = CC(C)CC(=O)*
# T1: gelatinase, type IV collagenase (Homo sapiens, UniProt P08253)
# T1 construct: host or cells: keratoconus keratocyte culture media (endogenous, secreted)
# T1 sequence (P08253 110-660): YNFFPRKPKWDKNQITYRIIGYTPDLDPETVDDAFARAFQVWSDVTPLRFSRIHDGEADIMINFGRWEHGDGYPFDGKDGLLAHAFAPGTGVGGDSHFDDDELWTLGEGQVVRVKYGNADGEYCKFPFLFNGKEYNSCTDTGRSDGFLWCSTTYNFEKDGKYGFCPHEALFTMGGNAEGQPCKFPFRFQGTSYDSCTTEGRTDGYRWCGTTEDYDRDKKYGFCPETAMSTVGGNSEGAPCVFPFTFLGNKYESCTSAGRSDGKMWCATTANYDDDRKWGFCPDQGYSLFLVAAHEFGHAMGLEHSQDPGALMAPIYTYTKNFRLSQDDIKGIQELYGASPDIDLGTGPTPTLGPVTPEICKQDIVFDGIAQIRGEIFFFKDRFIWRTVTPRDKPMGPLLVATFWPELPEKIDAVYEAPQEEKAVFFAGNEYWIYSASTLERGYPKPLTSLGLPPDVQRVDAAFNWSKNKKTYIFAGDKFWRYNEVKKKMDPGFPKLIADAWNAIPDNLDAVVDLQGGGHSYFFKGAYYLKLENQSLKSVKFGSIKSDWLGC
# T2: proteinase-3 (Homo sapiens, UniProt P24158)
# T2 sequence (P24158 28-248): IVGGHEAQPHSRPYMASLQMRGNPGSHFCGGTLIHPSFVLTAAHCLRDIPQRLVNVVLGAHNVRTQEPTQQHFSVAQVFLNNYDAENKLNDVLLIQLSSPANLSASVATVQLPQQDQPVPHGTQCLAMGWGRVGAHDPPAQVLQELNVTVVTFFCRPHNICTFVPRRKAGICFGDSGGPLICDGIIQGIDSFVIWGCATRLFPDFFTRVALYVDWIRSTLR
# T3: elastase (Homo sapiens, UniProt P08246)
# T3 sequence (P08246 30-267): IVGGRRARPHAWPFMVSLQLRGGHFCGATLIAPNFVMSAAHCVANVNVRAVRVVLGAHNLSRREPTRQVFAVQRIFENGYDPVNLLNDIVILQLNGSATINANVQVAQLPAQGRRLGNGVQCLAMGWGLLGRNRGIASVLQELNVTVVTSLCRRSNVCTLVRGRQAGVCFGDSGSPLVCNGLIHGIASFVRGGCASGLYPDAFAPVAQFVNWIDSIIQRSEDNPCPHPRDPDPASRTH
# T4: cathepsin G (Homo sapiens, UniProt P08311)
# T4 sequence (P08311 21-244): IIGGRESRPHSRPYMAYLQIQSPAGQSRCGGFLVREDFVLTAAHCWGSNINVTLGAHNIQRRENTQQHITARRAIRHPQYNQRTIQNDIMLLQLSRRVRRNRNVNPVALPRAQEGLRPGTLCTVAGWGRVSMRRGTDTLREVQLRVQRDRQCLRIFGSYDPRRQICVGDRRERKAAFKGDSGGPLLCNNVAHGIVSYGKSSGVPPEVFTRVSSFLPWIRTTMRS
# B1: α2-M: α2-macroglobulin, high-molecular-weight (718 kD) homotetrameric glycoprotein protease inhibitor (protein, UniProt P01023 24-1474, looked up)
# Alpha-2-macroglobulin: SVSGKPQYMVLVPSLLHTETTEKGCVLLSYLNETVTVSASLESVRGNRSLFTDLEAENDVLHCVAFAVPKSSSNEEVMFLTVQVKGPTQEFKKRTTVMVKNEDSLVFVQTDKSIYKPGQTVKFRVVSMDENFHPLNELIPLVYIQDPKGNRIAQWQSFQLEGGLKQFSFPLSSEPFQGSYKVVVQKKSGGRTEHPFTVEEFVLPKFEVQVTVPKIITILEEEMNVSVCGLYTYGKPVPGHVTVSICRKYSDASDCHGEDSQAFCEKFSGQLNSHGCFYQQVKTKVFQLKRKEYEMKLHTEAQIQEEGTVVELTGRQSSEITRTITKLSFVKVDSHFRQGIPFFGQVRLVDGKGVPIPNKVIFIRGNEANYYSNATTDEHGLVQFSINTTNVMGTSLTVRVNYKDRSPCYGYQWVSEEHEEAHHTAYLVFSPSKSFVHLEPMSHELPCGHTQTVQAHYILNGGTLLGLKKLSFYYLIMAKGGIVRTGTHGLLVKQEDMKGHFSISIPVKSDIAPVARLLIYAVLPTGDVIGDSAKYDVENCLANKVDLSFSPSQSLPASHAHLRVTAAPQSVCALRAVDQSVLLMKPDAELSASSVYNLLPEKDLTGFPGPLNDQDNEDCINRHNVYINGITYTPVSSTNEKDMYSFLEDMGLKAFTNSKIRKPKMCPQLQQYEMHGPEGLRVGFYESDVMGRGHARLVHVEEPHTETVRKYFPETWIWDLVVVNSAGVAEVGVTVPDTITEWKAGAFCLSEDAGLGISSTASLRAFQPFFVELTMPYSVIRGEAFTLKATVLNYLPKCIRVSVQLEASPAFLAVPVEKEQAPHCICANGRQTVSWAVTPKSLGNVNFTVSAEALESQELCGTEVPSVPEHGRKDTVIKPLLVEPEGLEKETTFNSLLCPSGGEVSEELSLKLPPNVVEESARASVSVLGDILGSAMQNTQNLLQMPYGCGEQNMVLFAPNIYVLDYLNETQQLTPEIKSKAIGYLNTGYQRQLNYKHYDGSYSTFGERYGRNQGNTWLTAFVLKTFAQARAYIFIDEAHITQALIWLSQRQKDNGCFRSSGSLLNNAIKGGVEDEVTLSAYITIALLEIPLTVTHPVVRNALFCLESAWKTAQEGDHGSHVYTKALLAYAFALAGNQDKRKEVLKSLNEEAVKKDNSVHWERPQKPKAPVGHFYEPQAPSAEVEMTSYVLLAYLTAQPAPTSEDLTSATNIVKWITKQQNAQGGFSSTQDTVVALHALSKYGAATFTRTGKAAQVTIQSSGTFSSKFQVDNNNRLLLQQVSLPELPGEYSMKVTGEGCVYLQTSLKYNILPEKEEFPFALGVQTLPQTCDEPKAHTSFQISLSVSYTGSRSASNMAIVDVKMVSGFIPLKPTVKMLERSNHVSRTEVSSNHVLIYLDKVSNQTLSLFFTVLQDVPVRDLKPAIVKVYDYYETDEFAIAEYNAPCSKDLGNA
# B2: SLPI: secretory leucocyte protease inhibitor, an 11.7 kDa elastase and cathepsin G specific inhibitor (protein, UniProt P03973 26-132, looked up)
# Antileukoproteinase: SGKSFKAGVCPPKKSAQCLRYKKPECQSDWQCPGKKRCCPDTCGIKCLDPVDTPNPTRRKPGKCPVTYGQCLMLNPPNFCEMDGQCKRDLKCCMGMCGKSCVSPVKA
# Experiments:
# [1] = target: T1, gelatinase, type IV collagenase; conditions: keratoconus keratocyte culture media
# [2] = test system: gelatinolytic and caseinolytic activities; conditions: in situ zymography, healthy control and keratoconic specimens
# [3] = target: T2, proteinase-3
# [4] = test system: PMN cell proteases
# [5] = target: T3, elastase; conditions: R-type tear fluid; from calculated molar ratios of serpins
# [6] = target: T3, elastase
# [7] = target: T4, cathepsin G
# [8] = test system: E. coli
# [9] = test system: Staphylococcus aureus
# [10] = test system: HIV virus; conditions: cell culture
molecule,measurement,setting,value
O[C@H](CS)[C@H](O)CS (racemic) [dithiothreitol],effect on gelatinolytic activity,[1],inactivated
"c1cnc2c(c1)ccc1cccnc12 [1, 10-phenanthroline]",effect on digestion of gelatin and casein,[2],failed to block
OCCS [B-mercaptoethanol],effect on gelatinolytic activity,[1],inactivated
CC(C)C[C@H](NC(=O)[C@H]1O[C@@H]1C(=O)O)C(=O)NCCCCN=C(N)N [E-64],effect on digestion of gelatin and casein,[2],substantially reduced
CC(=O)N[C@@H](CC(C)C)C(=O)N[C@@H](CC(C)C)C(=O)N[C@H](C=O)CCCNC(=N)N [leupeptin],effect on digestion of gelatin and casein,[2],substantially reduced
CC(C)CC(=O)N[C@H](C(=O)N[C@H](C(=O)N[C@@H](CC(C)C)[C@@H](O)CC(=O)N[C@@H](C)C(=O)N[C@@H](CC(C)C)[C@@H](O)CC(=O)O)C(C)C)C(C)C [pepstatin] (Isovaleryl-VV[Sta]A[Sta]-OH),effect on digestion of gelatin and casein,[2],failed to block
O=S(=O)(F)Cc1ccccc1 [phenylmethyl sulfonyl fluoride],effect on digestion of gelatin and casein,[2],substantially reduced
same,effect on gelatinolytic activity,[1]; lmM,not effected
"alp1: α-1 protease inhibitor, a major protease inhibitor in human plasma, glycoprotein of 53 kDa",inhibition of proteinase-3,[3],potent inhibitors
"elafin: protease inhibitor (6-9 kDa), potent inhibitor of proteinase-3 (AQEPVKGPVSTKPGSCPIILIRCAMLNPPNRCLKDTDCPGIKKCCEGSCGMACFVPQ; ends and bridges not checked; cysteine pairing not given here; UniProt P19957 61-117, looked up)",inhibition of proteinase-3,[3],potent inhibitors
B1,rate of reaction with PMN cell proteases,[4],relatively slow rate
B2,share of the total elastase inhibitory activity,[5],≥ 95%
same,inhibition of elastase,[6],potent inhibitor
same,inhibition of cathepsin G,[7],potent inhibitor
same,inhibition of proteinase-3,[3],no capacity to inhibit
same,cytotoxicity to E. coli,[8],cytotoxic
same,cytotoxicity to Staphylococcus aureus,[9],cytotoxic
same,effect on transmission and replication of HIV virus,[10],inhibits
